B1: XENP39368 (bispecific antibody)
heavy: EVQLLESGGGLVQPGGSLRLSCAASGFTFSSYDMSWVRQAPGKRLEWVSTISSGGSFTHYPDSVKGRFTISRDNSKNTLYLQMNSLRAEDTAVYYCARRSLDWYFDVWGAGTTVTVSSASTKGPSVFPLAPSSKSTSGGTAALGCLVKDYFPEPVTVSWNSGALTSGVHTFPAVLQSSGLYSLSSVVTVPSSSLGTQTYICNVNHKPSDTKVDKKVEPKSCDKTHTCPPCPAPPVAGPSVFLFPPKPKDTLMISRTPEVTCVVVDVKHEDPEVKFNWYVDGVEVHNAKTKPREEEYNSTYRVVSVLTVLHQDWLNGKEYKCKVSNKALPAPIEKTISKAKGQPREPQVYTLPPSREEMTKNQVSLTCDVSGFYPSDIAVEWESDGQPENNYKTTPPVLDSDGSFFLYSKLTVDKSRWEQGDVFSCSVMHEALHNHYTQKSLSLSPGK
scFv-Fc: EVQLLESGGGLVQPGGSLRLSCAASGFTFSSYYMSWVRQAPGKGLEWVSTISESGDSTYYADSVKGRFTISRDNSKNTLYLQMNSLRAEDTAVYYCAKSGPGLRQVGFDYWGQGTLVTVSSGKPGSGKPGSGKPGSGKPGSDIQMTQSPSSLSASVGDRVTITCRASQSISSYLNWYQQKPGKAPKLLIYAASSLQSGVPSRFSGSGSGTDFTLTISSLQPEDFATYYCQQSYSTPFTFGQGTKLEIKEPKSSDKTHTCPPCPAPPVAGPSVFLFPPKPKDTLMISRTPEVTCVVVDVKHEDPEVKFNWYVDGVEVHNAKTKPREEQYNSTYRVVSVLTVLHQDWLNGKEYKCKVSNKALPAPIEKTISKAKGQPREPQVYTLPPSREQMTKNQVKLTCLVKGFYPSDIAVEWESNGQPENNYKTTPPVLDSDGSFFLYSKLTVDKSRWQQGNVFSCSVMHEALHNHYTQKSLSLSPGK
light: EIVLTQSPGTLSLSPGERATLSCRVSSSIQSTNLHWYQQKPGQSPRPLIYGTSVLATGVPVRFSGSGSGTDYTLTISRLEPEDFAVYYCQQWSSYPLYTFGGGTKVEIKRTVAAPSVFIFPPSDEQLKSGTASVVCLLNNFYPREAKVQWKVDNALQSGNSQESVTEQDSKDSTYSLSSTLTLSKADYEKHKVYACEVTHQGLSSPVTKSFNRGEC
B2: XENP39365 (bispecific antibody)
heavy: B1 heavy
scFv-Fc: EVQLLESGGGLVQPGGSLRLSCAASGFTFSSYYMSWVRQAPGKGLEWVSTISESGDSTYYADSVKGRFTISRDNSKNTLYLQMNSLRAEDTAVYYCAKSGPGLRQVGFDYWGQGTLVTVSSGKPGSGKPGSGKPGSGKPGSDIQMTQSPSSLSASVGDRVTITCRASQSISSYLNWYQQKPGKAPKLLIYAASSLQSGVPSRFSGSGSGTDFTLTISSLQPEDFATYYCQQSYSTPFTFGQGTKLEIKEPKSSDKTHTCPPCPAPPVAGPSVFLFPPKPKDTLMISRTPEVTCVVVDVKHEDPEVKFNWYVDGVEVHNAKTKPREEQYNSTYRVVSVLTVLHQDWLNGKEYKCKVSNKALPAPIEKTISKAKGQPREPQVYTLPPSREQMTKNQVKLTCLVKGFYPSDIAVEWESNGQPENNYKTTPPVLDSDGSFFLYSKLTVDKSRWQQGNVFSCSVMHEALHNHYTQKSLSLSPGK
light: B1 light with S27L, T32S, S53N, V54L, T57S
B3: PDL1 binding domain 2G4_H1.12_L1.68 (Fab, V domains shown)
VH: EVQLLESGGGLVQPGGSLRLSCAASGFTFSVYDMSWVRQAPGKRLEWVSTISSGGSFTHYPDSVKGRFTISRDNSKNTLYLQMNSLRAEDTAVYYCVRRSLDWYFDVWGAGTTVTVSS
VL: EIVLTQSPGTLSLSPGERATLSCRVSSSIQSTNLHWYQQKPGQSPRPLIYGTSNLASGVPVRFSGSGSGTDYTLTISRLEPEDFAVYYCQQWSSYPLYTFGGGTKVEIK
B4: PDL1 binding domain 2G4_H1.12_L1.14 (Fab, V domains shown)
VH: B3 VH
VL: B3 VL with T32S
notes: also called as in XENP40409 and XENP40706
B5: PDL1 binding domain 2G4_H1.12_L1.66 (Fab, V domains shown)
VH: B3 VH
VL: B3 VL with S57T
B6: XENP38514 (bispecific antibody)
heavy: B1 heavy with S31V, A97V
scFv-Fc: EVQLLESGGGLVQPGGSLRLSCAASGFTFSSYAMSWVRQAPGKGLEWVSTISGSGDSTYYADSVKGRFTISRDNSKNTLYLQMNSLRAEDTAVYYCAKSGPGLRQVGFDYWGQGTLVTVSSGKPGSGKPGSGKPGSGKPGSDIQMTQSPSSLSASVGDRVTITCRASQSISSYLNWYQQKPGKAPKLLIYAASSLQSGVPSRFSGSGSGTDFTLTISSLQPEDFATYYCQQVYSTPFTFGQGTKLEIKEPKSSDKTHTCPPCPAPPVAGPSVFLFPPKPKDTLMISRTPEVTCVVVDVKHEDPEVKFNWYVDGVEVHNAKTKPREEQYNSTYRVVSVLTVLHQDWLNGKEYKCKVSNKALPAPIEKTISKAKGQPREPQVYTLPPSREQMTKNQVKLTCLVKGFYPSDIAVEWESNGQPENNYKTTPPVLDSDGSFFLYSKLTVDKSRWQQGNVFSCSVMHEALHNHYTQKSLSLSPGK
light: B1 light
notes: also called αPDL1×αCD28 bsAb XENP38514
B7: XENP37561 (bispecific antibody)
chain 1: B1 heavy with A97V, L101G
chain 2: not shown
chain 3: B1 light with Q30S, T32S, V54N, T57S
B8: XENP37261 (bispecific antibody)
chain 1: B1 heavy with A97V, L101G
chain 2: not shown
chain 3: B1 light with Q30S, T32S, V54N, T57S
B9: XENP37412 (bispecific antibody)
chain 1: B1 heavy with A97V, L101G
chain 2: not shown
chain 3: B1 light with Q30S, T32S, V54N, T57S
B10: XENP37560 (bispecific antibody)
chain 1: B1 heavy with A97V, L101G
chain 2: not shown
chain 3: B1 light with Q30S, T32S, V54N, T57S
B11: XENP37559 (bispecific antibody)
chain 1: B1 heavy with A97V, L101G
chain 2: not shown
chain 3: B1 light with Q30S, T32S, V54N, T57S
B12: XENP36233 (bispecific antibody)
chain 1: B1 heavy with A97V, L101G
chain 2: not shown
chain 3: B1 light with Q30S, T32S, V54N, T57S

This passage reports binding result and Kd results from US20230383012A1 (Xencor, published 2023).

Numbering of substitutions follows the chain as printed.

For one assay, the target named is T1, human PDL1 (human, UniProt Q9NZQ7 19-238).
T1 construct: his-tagged in the Carterra assay; also called PDL1 antigen
Put plainly: descriptor in the SEB-stimulated PBMC example.
With B1, the binding result is listed as “binds”.
Same read-out and setting: the entry for B2 is “binds”.

Another assay deals with T1, human PDL1. Put plainly: PDL1 binding affinity; Biacore per paragraph 695, in PDL1×CD28 bsAb. (In SPR one partner is held on a chip, and binding of the other changes the refractive index at the surface.)
As to B3, binding was put at a Kd of 0.8 nM.
Same read-out and setting: the figure for B4 is 0.42 nM.
Still for that read-out and setting: the figure for B5 is 0.86 nM; for B6 it is 0.17 nM.

The target in a further assay is T2, human CD28 antigen (human, UniProt P10747 19-152).
T2 construct: also called his-tagged CD28 antigen
Put plainly: CD28 binding affinity; Octet per paragraph 712, scFv in 1+1 Fab-scFv-Fc PDL1×CD28 bsAb. For orientation: In BLI a coated tip is dipped into the sample, and binding shifts an interference pattern.
Turning to B7, the Kd (in general, a measure of binding affinity in units of concentration) was 37 nM.
Turning to B8, the affinity, expressed as Kd, was 36 nM. This Kd and that of the molecule before are within 1.5-fold of each other.
The same measure, in the same setting: as for B9, the figure is 286 nM; as for B10, 96 nM.
In the case of B11, the Kd turned out to be 180 nM.
Same read-out and setting: the figure for B12 is 240 nM.
